Assay results from patent publication US20070037211A1 (COUNCIL OF SCIENTIFIC AND INDUSTRIAL RESEARCH CSIR, published 2007).

Legend:
[1] = biological target: Hsp16.3, 16 kDa alpha-crystallin like heat shock protein of Mycobacterium tuberculosis, recombinant 6xHis-tagged (Mycobacterium tuberculosis) (UniProt P9WMK1); experiment: cell-based or functional assay
[2] = biological target: Hsp16.3, 16 kDa alpha-crystallin like heat shock protein of Mycobacterium tuberculosis, recombinant 6xHis-tagged (Mycobacterium tuberculosis) (UniProt P9WMK1); experiment: reverse phage ELISA on coated Hsp16.3, anti-M13-HRP, A405

Hsp16.3, 16 kDa alpha-crystallin like heat shock protein of Mycobacterium tuberculosis, recombinant 6xHis-tagged (Mycobacterium tuberculosis), sequence (P9WMK1 1-144, tags left off): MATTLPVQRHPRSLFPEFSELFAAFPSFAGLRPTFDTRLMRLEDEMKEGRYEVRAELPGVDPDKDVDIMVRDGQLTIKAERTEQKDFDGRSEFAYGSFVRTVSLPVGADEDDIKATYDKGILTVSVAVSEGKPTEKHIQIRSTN

| Substance | IC50 of inhibition of chaperon activity of Hsp16.3 (ADH heat aggregation assay, A360) [1] [µM] | aggregation of ADH restored in the presence of Hsp16.3 and 100 µM peptide (A360 at saturation) [1] [%] | fold binding over non-specific control BSA [2] [fold] |
| --- | --- | --- | --- |
| synthetic peptide Seq ID 10 (Seq ID 9 with Gly-Gly-Gly-Ser at the C-terminal end), C-terminus amidated | 47 | 70 |  |
| M13 phage clone displaying peptide Seq ID 9 (Lys-Met-His-Ala-Thr-Asn-His), from Ph.D.-7 library |  |  | 3 |
